Holding throughout (assay): cell-based or functional assay
Assay [1] addresses T1, human GIP receptor (human) (UniProt P48546).
T1 sequence (looked up): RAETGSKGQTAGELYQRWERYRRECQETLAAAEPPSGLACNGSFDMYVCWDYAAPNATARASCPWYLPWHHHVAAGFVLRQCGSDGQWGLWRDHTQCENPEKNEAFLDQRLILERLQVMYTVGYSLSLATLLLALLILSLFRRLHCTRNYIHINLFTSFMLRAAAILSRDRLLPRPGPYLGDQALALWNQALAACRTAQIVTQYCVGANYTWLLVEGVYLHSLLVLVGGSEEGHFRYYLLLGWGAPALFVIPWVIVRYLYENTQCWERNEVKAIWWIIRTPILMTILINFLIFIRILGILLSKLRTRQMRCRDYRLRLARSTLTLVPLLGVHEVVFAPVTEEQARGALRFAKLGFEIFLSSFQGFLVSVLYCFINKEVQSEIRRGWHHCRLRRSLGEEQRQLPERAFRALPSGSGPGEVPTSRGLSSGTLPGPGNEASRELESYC

In assay [2] the target is human glucagon receptor (human) (UniProt P47871).
A further assay deals with hGLP-1R (Homo sapiens, UniProt P43220).

The source of these data is patent publication US20240270821A1, “GIP/GLP1/GCG TRI-RECEPTOR AGONISTS AND USES THEREOF” (priority 2023, published 2024).

Chain of hGLP-1R (P43220 24-463): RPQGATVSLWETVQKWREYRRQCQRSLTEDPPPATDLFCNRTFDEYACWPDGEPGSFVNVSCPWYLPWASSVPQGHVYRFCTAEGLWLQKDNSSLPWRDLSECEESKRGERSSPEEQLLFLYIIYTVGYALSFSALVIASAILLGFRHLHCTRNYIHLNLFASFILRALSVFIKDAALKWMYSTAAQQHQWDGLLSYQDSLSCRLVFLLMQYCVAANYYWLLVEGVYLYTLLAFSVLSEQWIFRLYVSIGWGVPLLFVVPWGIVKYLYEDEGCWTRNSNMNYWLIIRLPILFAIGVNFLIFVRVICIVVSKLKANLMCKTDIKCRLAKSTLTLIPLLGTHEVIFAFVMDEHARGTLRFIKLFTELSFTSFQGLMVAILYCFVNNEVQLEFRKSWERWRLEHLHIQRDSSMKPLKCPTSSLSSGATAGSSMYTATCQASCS
Chain of human glucagon receptor (human) (P47871 26-477): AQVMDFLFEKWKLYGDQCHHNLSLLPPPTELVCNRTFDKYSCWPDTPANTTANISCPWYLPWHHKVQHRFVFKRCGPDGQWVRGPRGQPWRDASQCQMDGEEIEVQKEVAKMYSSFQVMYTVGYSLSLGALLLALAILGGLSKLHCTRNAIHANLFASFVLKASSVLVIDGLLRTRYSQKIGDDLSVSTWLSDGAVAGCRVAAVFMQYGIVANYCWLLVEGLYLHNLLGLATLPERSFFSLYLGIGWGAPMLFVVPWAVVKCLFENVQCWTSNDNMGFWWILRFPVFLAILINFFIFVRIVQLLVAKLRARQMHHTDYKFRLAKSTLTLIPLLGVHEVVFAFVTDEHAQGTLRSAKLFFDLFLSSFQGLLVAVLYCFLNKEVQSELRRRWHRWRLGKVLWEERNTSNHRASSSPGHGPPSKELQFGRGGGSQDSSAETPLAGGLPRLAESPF

B1: Example 492 (peptide)
chain: YXQGTXTSDXXIXLDXKAQXXFIEYLIEGGPSSGAPEPSEG
modifications: synthetic construct; SITE 2: note = 2-Aminoisobutyric Acid; SITE 6: note = alpha-methyl-2-fluoro-L-phenylalanine; SITE 10: note = 3-(4-Pyridyl)-L-alanine; SITE 11: note = alpha-methyl-L-serine; SITE 13: note = alpha-methyl-leucine; SITE 16: note = L-ornithine; SITE 17: note = Lysine is chemically mo
Consider B1, for which the Relative cAMP EC50, nM (0.1% casein) in assay [1] was determined as 0.0119 nM; in assay [2], 1.35 nM; in the assay with hGLP-1R, 0.146 nM. In addition, the cAMP Rel EC50 (receptor-expressing HEK-293 cells, 1% HSA) in assay [1] came out at 0.84 nM; in assay [2] it was 128 nM; in the assay with hGLP-1R, 9.85 nM.

B2: Example 494 (peptide)
chain: YXQGTXTSDXSIXLDXKAQXXFIEYLLEGGPSSGEPPPEEG
modifications: synthetic construct; SITE 2: note = 2-Aminoisobutyric Acid; SITE 6: note = alpha-methyl-2-fluoro-L-phenylalanine; SITE 10: note = 3-(4-Pyridyl)-L-alanine; SITE 13: note = alpha-methyl-leucine; SITE 16: note = L-ornithine; SITE 17: note = Lysine is chemically modified through conjugation of the epsil
For the molecule B2, the Relative cAMP EC50, nM (0.1% casein) was determined as 0.014 nM in assay [1], 1.26 nM in assay [2] and 0.211 nM with hGLP-1R. For the same molecule, the figures for the cAMP Rel EC50 (receptor-expressing HEK-293 cells, 1% HSA) (in assay [1]; in assay [2]; in the assay with hGLP-1R) were 1.08 nM, 333 nM and 19.9 nM, respectively.

B3: Example 502 (peptide)
chain: YXQGTXTSDXXIXLDXKAQXXFIEYLIEGGPSSGEPPPSGT
modifications: synthetic construct; SITE 2: note = 2-Aminoisobutyric Acid; SITE 6: note = alpha-methyl-2-fluoro-L-phenylalanine; SITE 10: note = 3-(4-Pyridyl)-L-alanine; SITE 11: note = alpha-methyl-L-serine; SITE 13: note = alpha-methyl-leucine; SITE 16: note = L-ornithine; SITE 17: note = Lysine is chemically mo
For the molecule B3, the Relative cAMP EC50 worked out at 0.0337 nM in assay [1], 3.8 nM in assay [2] and 0.326 nM with hGLP-1R. Moreover, the cAMP Rel EC50 (1% HSA) was determined as 2.42 nM in assay [1], 395 nM in assay [2] and 30.6 nM in the assay with hGLP-1R.

B4: Example 497 (peptide)
chain: YXQGTFTSDXSXXLDKKAQXAFIEXLIEGGPSSGAPPPSGS
modifications: synthetic construct; SITE 2: note = 2-Aminoisobutyric Acid; SITE 10: note = 3-(4-Pyridyl)-L-alanine; SITE 12: note = L-ornithine; SITE 13: note = alpha-methyl-leucine; SITE 17: note = Lysine is chemically modified through conjugation of the epsilon-amino group of the Lysine side chain with (2-[2-(2-
In the case of B4, the Relative cAMP EC50 in assay [1] worked out at 0.297 nM; in assay [2], 2.7 nM; with hGLP-1R, 1.08 nM. For the same molecule, the cAMP Rel EC50 (1% HSA) is 32.6 nM in assay [1], 418 nM in assay [2] and 161 nM with hGLP-1R.

B5: Example 503 (peptide)
chain: YXQGTXTSDXXIXLDXKAQXXFIEXLQEGGPSSGEPPPEGTE
modifications: synthetic construct; SITE 2: note = 2-Aminoisobutyric Acid; SITE 6: note = alpha-methyl-2-fluoro-L-phenylalanine; SITE 10: note = 3-(4-Pyridyl)-L-alanine; SITE 11: note = alpha-methyl-L-serine; SITE 13: note = alpha-methyl-leucine; SITE 16: note = L-ornithine; SITE 17: note = Lysine is chemically mo
As to B5, the Relative cAMP EC50 turned out to be 0.0518 nM in assay [1], 3.98 nM in assay [2] and 0.525 nM with hGLP-1R. Also, the cAMP Rel EC50 (1% HSA) in assay [1] is 2.02 nM; in assay [2] it was 233 nM; in the assay with hGLP-1R it was 26.1 nM.

B6: Example 542 (peptide)
chain: YXQGTXTSDXXIXLDXKAQXXFIEXLTEGGPSSGEPPPSGTE
modifications: synthetic construct; SITE 2: note = 2-Aminoisobutyric Acid; SITE 6: note = alpha-methyl-2-fluoro-L-phenylalanine; SITE 10: note = 3-(4-Pyridyl)-L-alanine; SITE 11: note = alpha-methyl-L-serine; SITE 13: note = alpha-methyl-leucine; SITE 16: note = L-ornithine; SITE 17: note = Lysine is chemically mo
On to B6, for which the Relative cAMP EC50 in assay [1] was found to be 0.0336 nM; in assay [2] it was 5.03 nM; with hGLP-1R, 0.388 nM. The cAMP Rel EC50 (1% HSA) in assay [1] turned out to be 1.69 nM; in assay [2], 256 nM; with hGLP-1R, 29.6 nM.

B7: Example 522 (peptide)
chain: YXQGTXTSDXXIXLDXKAQXXFIEYLIEGGPSSGEPPPSGTE
modifications: not fully specified; printed without C-terminal amide; synthetic construct; SITE 2: note = 2-Aminoisobutyric Acid; SITE 6: note = alpha-methyl-2-fluoro-L-phenylalanine; SITE 10: note = 3-(4-Pyridyl)-L-alanine; SITE 11: note = alpha-methyl-L-serine; SITE 13: note = alpha-methyl-leucine; SITE 16: note = L-ornithine; SITE 17: note = Lysine is chemically mo
As for B7, the figures for the Relative cAMP EC50 (in assay [1]; in assay [2]; with hGLP-1R) were 0.033 nM, 6.32 nM and 0.51 nM, respectively. Moreover, the cAMP Rel EC50 (1% HSA) in assay [1] stood at 1.95 nM; in assay [2], 441 nM; with hGLP-1R it was 35.5 nM.

B8: Example 504 (peptide)
chain: YXQGTXTSDXXIXLDXKAQXXFIEXLQEGGPSSGEPPPSGTE
modifications: synthetic construct; SITE 2: note = 2-Aminoisobutyric Acid; SITE 6: note = alpha-methyl-2-fluoro-L-phenylalanine; SITE 10: note = 3-(4-Pyridyl)-L-alanine; SITE 11: note = alpha-methyl-L-serine; SITE 13: note = alpha-methyl-leucine; SITE 16: note = L-ornithine; SITE 17: note = Lysine is chemically mo
As for B8, the Relative cAMP EC50 stood at 0.0364 nM in assay [1], 2.83 nM in assay [2] and 0.253 nM with hGLP-1R. The cAMP Rel EC50 (1% HSA) came out at 1.8 nM in assay [1], 162 nM in assay [2] and 16.5 nM with hGLP-1R.

B9: Example 544 (peptide)
chain: YXQGTXTSDXXIXLDXKAQXXFIEXLAEGGPSSGEPPPSGTE
modifications: synthetic construct; SITE 2: note = 2-Aminoisobutyric Acid; SITE 6: note = alpha-methyl-2-fluoro-L-phenylalanine; SITE 10: note = 3-(4-Pyridyl)-L-alanine; SITE 11: note = alpha-methyl-L-serine; SITE 13: note = alpha-methyl-leucine; SITE 16: note = L-ornithine; SITE 17: note = Lysine is chemically mo
On to B9, for which the values for the Relative cAMP EC50 (in assay [1]; in assay [2]; with hGLP-1R) were 0.041 nM, 2.71 nM and 0.623 nM, respectively. The cAMP Rel EC50 (1% HSA) in assay [1] was determined as 2.4 nM; in assay [2] it was 171 nM; in the assay with hGLP-1R, 43 nM.

B10: Example 526 (peptide)
chain: YXQGTXTSDXXIXLDXKAQXNFIEXLQEGGPSSGEPPPEGTE
modifications: synthetic construct; SITE 2: note = 2-Aminoisobutyric Acid; SITE 6: note = alpha-methyl-2-fluoro-L-phenylalanine; SITE 10: note = 3-(4-Pyridyl)-L-alanine; SITE 11: note = alpha-methyl-L-serine; SITE 13: note = alpha-methyl-leucine; SITE 16: note = L-ornithine; SITE 17: note = Lysine is chemically mo
As for B10, the Relative cAMP EC50 is 0.0364 nM in assay [1], 8.62 nM in assay [2] and 0.421 nM with hGLP-1R. For the same molecule, the cAMP Rel EC50 (1% HSA) was 2.12 nM in assay [1], 530 nM in assay [2] and 22.9 nM with hGLP-1R.

B11: Example 528 (peptide)
chain: YXQGTXTSDXXIXLDXKAQXQFIEXLQEGGPSSGEPPPEGTE
modifications: synthetic construct; SITE 2: note = 2-Aminoisobutyric Acid; SITE 6: note = alpha-methyl-2-fluoro-L-phenylalanine; SITE 10: note = 3-(4-Pyridyl)-L-alanine; SITE 11: note = alpha-methyl-L-serine; SITE 13: note = alpha-methyl-leucine; SITE 16: note = L-ornithine; SITE 17: note = Lysine is chemically mo
For the molecule B11, the Relative cAMP EC50 in assay [1] stood at 0.0333 nM; in assay [2], 7 nM; with hGLP-1R it was 0.434 nM. Besides, the cAMP Rel EC50 (1% HSA) in assay [1] turned out to be 1.55 nM; in assay [2], 474 nM; in the assay with hGLP-1R, 24.3 nM.
